Test results from patent publication US20240360201A1.
pKd: −log10 of the molar value.

What was measured:
[1] = target: FcγRIIIA-F176-Sino (human) (UniProt P08637); test: SPR Biacore T200; binder captured on protein A chip, Fc receptor as analyte
[2] = target: FcγRIIB-Acro (human) (UniProt P31994); test: SPR (Biacore T200), antibody captured on protein A sensor chip, Fc receptor as analyte; analyte range 3200nm-25nm

PDL1-avelumab (antibody) was tested. Which pKd [1] did it give?
The pKd was 6.25.

And the pKd [2]?
Its pKd is 5.48.
